Changes are numbered by the printed parent chain. Where two headings read alike, the source gives them in different places. Blank lines part the entries; values can stand above or below the binder they belong to.
Assays:
[1] = target: cellular BACE1 in CHOK1-huAPP cells; experiment: cell-based or functional assay
[2] = target: T1, recombinant BACE1 (BACE1 extracellular domain, R&D Systems Cat#931-AS) (UniProt P56817 22-457); experiment: SPR Biacore
T1 construct: extracellular domain; also called BACE1 extracellular domain protein

[3] = target: T1, recombinant BACE1 (BACE1 extracellular …); experiment: SPR Biacore; remark: listed apart in the source
[4] = target: BACE1 in primary human neurons (human, UniProt P56817 46-501); experiment: cell-based or functional assay
[5] = target: cellular BACE1 in CHOK1-huAPP cells; experiment: cell-based or functional assay; remark: listed apart in the source
[6] = target: cellular BACE1 in CHOK1-huAPP cells; experiment: cell-based or functional assay; remark: listed apart in the source
[7] = target: cellular BACE1 in CHOK1-huAPP cells; experiment: cell-based or functional assay; remark: listed apart in the source
[8] = target: T1, recombinant BACE1 (BACE1 extracellular …); experiment: SPR Biacore T200, IgG captured, BACE1 analyte
Protocol: The affinity of chimeric IgG antibodies for recombinant BACE1 was determined by surface plasmon resonance using a Biacore™ T200 instrument. Biacore™ Series S CMS sensor chips were immobilized with monoclonal mouse anti-human IgG (Fc) antibody (e.g., using a human antibody capture kit from GE Healthcare). 1 μg/mL of antibody was captured for 1 minute on each flow cell and serial 3-fold dilutions of recombinant BACE1 were injected at a flow rate of 30 μL/min. Each sample was analyzed with a 3-minute association and a 10-minute dissociation. After each injection, the chip was regenerated using 3M MgCl₂. Binding response was corrected by subtracting the RU from a flow cell capturing an irrelevant IgG at similar density. A 1:1 Langmuir model of simultaneous fitting of kₒₙ and koff was used for analysis of kinetics.

[9] = target: T2, human TfR (human, UniProt P02786 89-760, limits assumed); experiment: soft-randomization libraries selected on TfR
T2 construct: Protein coated on ELISA plates; also called human transferrin receptor protein 1

[10] = target: T2, human TfR; experiment: ELISA, TfR coated, Fab-Fc fusion
Protocol: Binding ELISAs were conducted with purified Fab-Fc fusion variants with human or cyno TfR coated on the plate, as described above. The variants from the clone CH3C.18 maturation library, clone CH3C.3.2-1, clone CH3C.3.2-5, and clone CH3C.3.2-19, bound human and cyno TfR with approximately equivalent EC₅₀ values, whereas the parent clones CH3C.18 and CH3C.35 had greater than 10-fold better binding to human versus cyno TfR.

T2 sequence (P02786 89-760 limits assumed): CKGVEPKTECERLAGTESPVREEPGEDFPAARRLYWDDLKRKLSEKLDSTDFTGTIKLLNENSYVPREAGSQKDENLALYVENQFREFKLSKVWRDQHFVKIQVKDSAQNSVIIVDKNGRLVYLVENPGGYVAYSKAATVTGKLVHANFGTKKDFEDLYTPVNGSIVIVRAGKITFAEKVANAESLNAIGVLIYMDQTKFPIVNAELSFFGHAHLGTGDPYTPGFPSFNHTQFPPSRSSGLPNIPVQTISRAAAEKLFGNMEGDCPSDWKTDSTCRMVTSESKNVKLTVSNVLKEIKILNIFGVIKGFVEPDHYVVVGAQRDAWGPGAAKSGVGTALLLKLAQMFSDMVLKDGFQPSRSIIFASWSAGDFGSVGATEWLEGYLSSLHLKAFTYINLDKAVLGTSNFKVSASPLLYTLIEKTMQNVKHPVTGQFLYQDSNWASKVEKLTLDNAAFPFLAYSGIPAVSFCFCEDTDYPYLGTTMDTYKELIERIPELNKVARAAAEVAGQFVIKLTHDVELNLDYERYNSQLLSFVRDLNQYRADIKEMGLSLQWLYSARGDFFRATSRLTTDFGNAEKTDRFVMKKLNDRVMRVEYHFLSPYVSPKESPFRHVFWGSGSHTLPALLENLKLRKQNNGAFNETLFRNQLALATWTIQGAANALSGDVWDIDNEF
T1 sequence (P56817 22-457): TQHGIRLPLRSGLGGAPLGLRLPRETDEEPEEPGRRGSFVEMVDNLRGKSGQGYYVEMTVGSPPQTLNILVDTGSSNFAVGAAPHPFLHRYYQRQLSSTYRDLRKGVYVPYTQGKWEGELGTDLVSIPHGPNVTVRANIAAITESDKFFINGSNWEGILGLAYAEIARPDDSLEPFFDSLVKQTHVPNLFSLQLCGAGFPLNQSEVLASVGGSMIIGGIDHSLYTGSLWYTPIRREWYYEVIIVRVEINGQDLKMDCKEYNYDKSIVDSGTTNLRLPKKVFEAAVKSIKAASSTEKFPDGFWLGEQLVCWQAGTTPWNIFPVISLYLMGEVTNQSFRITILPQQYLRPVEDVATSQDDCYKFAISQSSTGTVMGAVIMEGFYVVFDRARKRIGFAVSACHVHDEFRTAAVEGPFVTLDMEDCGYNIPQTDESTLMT
Sequence of BACE1 in primary human neurons (P56817 46-501): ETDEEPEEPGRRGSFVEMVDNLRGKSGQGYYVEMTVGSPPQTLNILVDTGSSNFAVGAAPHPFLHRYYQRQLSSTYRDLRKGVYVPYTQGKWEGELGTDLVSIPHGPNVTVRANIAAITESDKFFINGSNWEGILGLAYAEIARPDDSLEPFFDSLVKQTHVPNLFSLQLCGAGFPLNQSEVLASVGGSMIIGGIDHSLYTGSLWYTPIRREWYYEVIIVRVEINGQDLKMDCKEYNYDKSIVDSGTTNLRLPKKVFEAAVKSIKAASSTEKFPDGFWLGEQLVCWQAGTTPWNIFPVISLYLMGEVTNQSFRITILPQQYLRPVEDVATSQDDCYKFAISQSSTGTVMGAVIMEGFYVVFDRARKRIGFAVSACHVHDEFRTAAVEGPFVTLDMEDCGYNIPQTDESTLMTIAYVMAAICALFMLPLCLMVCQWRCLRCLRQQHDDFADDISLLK

binding result [9]: binds
B5: Clone CH3C.51 (designed binder)
chain: APELLGGPSVFLFPPKPKDTLMISRTPEVTCVVVDVSHEDPEVKFNWYVDGVEVHNAKTKPREEQYNSTYRVVSVLTVLHQDWLNGKEYKCKVSNKALPAPIEKTISKAKGQPREPQVYTLPPSRDELTKNQVSLTCLVKGFYPSDIAVEWESLGHVWVGYKTTPPVLDSDGSFFLYSKLTVSKSEWQQGWVFSCSVMHEALHNHYTQKSLSLSPGK
notes: modified Fc polypeptide

binding result [9]: binds
B6: Clone CH3C.25 (designed binder)
chain: B5 chain with L154M, S183D, E186T
notes: modified Fc polypeptide

binding result [10]: binds
B7: Clone CH3C.3.2-1 (designed binder)
chain: B5 chain with G160N, Y161F, S183P, E186T
notes: modified Fc polypeptide; tested as purified Fab-Fc fusion, Fab not identified

binding result [9]: binds
B8: Clone CH3C.17 (designed binder)
chain: B5 chain with L154Y, H156T, V159S, G160K, W191F
notes: modified Fc polypeptide

binding result [9]: binds
B9: Clone CH3C.44 (designed binder)
chain: B5 chain with L154Y, H156T, V157E, V159S, G160N, W191F
notes: modified Fc polypeptide

Continued, binder first:

B1: Clone35.23.4:2H8/2H8 (antibody, V domains shown)
VH: QVQLVQSGAEVKKPGASVKVSCKASGYTFTNFWIHWVRQAPGQGLEWMGMIDPSSSYTKYNQKFKARATLTVDTSTSTVYMELSSLRSEDTAVYYCARSGASLPYWGQGTLVTVSS
VL: DIQMTQSPSSLSASVGDRVTITCKASQDVGRNVAWYQQKPGKSPKSLIYSASHYYSGVPSRFSGSGSGTDFTLTISSLQPEDFATYFCQQYYSYPYTFGQGTKVEIK
cellular IC50 (human Aβ40, CHO-huAPP cells) [1]: 10 nM

B2: 2H8 (antibody, human IgG1, V domains shown)
VH: EVQLQQSGPELVKPGASVKLSCKASGYTFTNFWIHWLKQRPGQGLEWIGMIDPSDSYTKYNQKFKAKATLTVDTSSSTTYMHLSSLTSEDSAVYYCARSGVAFPYWGQRTLVTVSA
VL: DIVMTQSQKFMSKSVGDTVSVTCKASQDVGRNVAWYQQKSGQSPKSLIYSASHRYSGVPDRFTGSGSGTDFTLTISNVQSEDLADYFCQQYNSYPYTFGGGTRLEIK
notes: chimeric, human IgG1/kappa; also called Clone 2H8; 2H8.01
Kd [2]: 14.8 nM | koff [2]: 0.000316 s⁻¹ | kon [2]: 21400 M⁻¹ s⁻¹ | Kd [3]: 14.8 nM | IC50 of Aβ40 formation, primary human neurons [4]: 15 nM | % Max Inhibition [5]: 71% | Cellular IC50 [5]: 16 nM | IC50 [6]: 25 nM | Max. % inhibition [6]: 82% | IC50 [7]: 24.8 nM | Max. % inhibition [7]: 82% | Kd [8]: 6.3 nM | koff [8]: 0.00019 s⁻¹ | kon [8]: 30000 M⁻¹ s⁻¹

B3: Clone CH3C.21 (designed binder)
chain: B5 chain with H156L, S183P, E186T
notes: modified Fc polypeptide
binding result [9]: binds

B4: Clone CH3C.34 (designed binder)
chain: B5 chain with H156L, G160F, Y161S, S183P, E186T
notes: modified Fc polypeptide
binding result [9]: binds

Reference: patent US20210070881A1 (DENALI THERAPEUTICS, published 2021)
